Sequences and labels used below:
B1: Hairpin Ribozyme (parent)
chain: GUCCUCUUUCACGUGCGCGUGAAAGAGAGAAGUGAACCAGAGAAACACACGUUGUGGUAUAUUACCUGGUA

The source of these data is the RNAGym collection of RNA variant scans (doi:10.7554/elife.80360).

The data set covers variants of B1. Briefly: self-cleavage, relative activity (ratio to wild type); higher = more cleavage; co-transcriptional.
For GUCCUCUUUGGCGUGCGCGUGAAAGAGAGAAGUGAACCAGAGAAACACACGUUGUGGUAUAUUACCUGGUA, the self-cleavage was 0.655.

On to GUCCUAUUUCACGUGCGCGUGAAAGAGAGAAGUGAACCAGAGAAAAACACGUUGUGGUAUAUUACCUGGUA, for which the self-cleavage worked out at 0.119.

Regarding GUCCUCUUUCACGUGCGCGUGAAAGAGAGAUGUGAACCAGAGAAACACACGGUGUGGUAUAUUACCUGGUA, the self-cleavage is 0.117.

Take GUCCUCUUUCACGUGCGCGUGAAAGAGAGAAGUGAACCAGAAAAACACAUGUUGUGGUAUAUUACCUGGUA: the self-cleavage is 0.106.

Regarding GUCCUCUUUCACGUGCGCAUGAAAGCGAGAAGUGAACCAGAGAAACACACGUUGUGGUAUAUUACCUGGUA, the self-cleavage came to 0.541.

Take GUCCUCUCUCACGUGCGCGUGAAAGAGAGAAGUGAACCAGAGAAACACACGUUGUGGUAGAUUACCUGGUA: the self-cleavage was determined as 0.489.

On to GUCCUCUUUCACGUGCGCGUGAAAGAGAGAAGCGAACCAGAGAAACACAGGUUGUGGUAUAUUACCUGGUA, for which the self-cleavage is 0.0836.

For the variant GUCCUCUUUCACGUGCGCGUGAAAGAGAGAAGUGAACCAGAGAAACACACGUUGUGGUAUAUUACCUCGCA, the self-cleavage was 0.339.

As for GUCCUCUUUCACGUGCGCGUGAAAGGUAGAAGUGAACCAGAGAAACACACGUUGUGGUAUAUUACCUGGUA, the self-cleavage was 0.121.

Turning to GUCCUCUUUCACGUGCGCGUGAAAGAGAGAAGUGAGCCAGAGAAACACACGUUGUGGUUUAUUACCUGGUA, the self-cleavage was 0.0811.

Take GUCCUCUUUCACGUGCGCGUGAAAGAGAGAAGUGAGCCAGAGAAACACACGUUGUGGUGUAUUACCUGGUA: the self-cleavage amounted to 0.146.

Consider GUCCUCUUUCACGUGCGCGUGAAAGAGAGAAGUGAACCAGAGAUACACACGUGGUGGUAUAUUACCUGGUA, for which the self-cleavage was found to be 0.159.

In the case of GUCCUCUUUCACGUGCGCGUGAAAGAGAGAAGUGAACCAGAGAAAGACACGUUGUGGUAUAUUACCUCGUA, the self-cleavage amounted to 0.13.

For GUCCUCUUUCACGUGCGCGUGAAAGAGAGAAGUGAACCAGAGAAACACACGUUUUGGUAUAUUACCUGGUC, the self-cleavage is 1.1.

Take GUCCUCUUUCACGUGCGCGUGAGAGAGAGAAGCGAACCAGAGAAACACACGUUGUGGUAUAUUACCUGGUA: the self-cleavage turned out to be 0.0496.

In the case of GUCCUCUUUCACGUGCGCGUGAAAGAGAAAAGUGAACCAGAGAAACACACGUUGUGGUGUAUUACCUGGUA, the self-cleavage was 0.162.

GUCCUCUUGCACGUGCGCGUGAAAGAGAGAAGUGAACCAGAGAAACACACGUAGUGGUAUAUUACCUGGUA: the self-cleavage is 0.672.

GUCCUCUUUCACGUGCGCGUGAAAGAGAGAAGUGAACCAGAGAAACACACGUUGUGGGAUACUACCUGGUA: the self-cleavage was 0.187.

GUCCUCUUUCAGGUGCGCGGGAAAGAGAGAAGUGAACCAGAGAAACACACGUUGUGGUAUAUUACCUGGUA: the self-cleavage worked out at 0.798.

As to GUCCUCUUUCACGUGCGCGUGAAAGAGACAAGUGAACCAGAGAAACACACCUUGUGGUAUAUUACCUGGUA, the self-cleavage is 0.103.

As to GUCCUCUUUCACGUGCGCGUGAAAGAGAGAAGUGAACCAGAGAAACACAGGUUGUGGUAUACUACCUGGUA, the self-cleavage amounted to 0.158.

Consider GUCCUCUUUCACGUGCGGGUGAAAGAGAGAAGUGAACCAGAGAAACACACGUUGUGGUAUAUUACCCGGUA, for which the self-cleavage worked out at 0.212.

Turning to GUCCUCUUUGACGUGCGCGUGAAAGAGAGAAGUGAACCAGAGAAAGACACGUUGUGGUAUAUUACCUGGUA, the self-cleavage was 0.162.

For GUCCUCGUUCACGUGCGCGUGAAAGAGAGAAGUGAACCAGAGAAACACACGUUGUGGUAUAUUACCGGGUA, the self-cleavage amounted to 0.283.

With GUCCUCUUUCACGUGCGCGUGAAAGAGAGAAGUGAACCAGAGAUACACACGUUGUGGUAUUUUACCUGGUA, the self-cleavage worked out at 0.124.

Regarding GUCCUCUUUUACGUGCGCGUGGAAGAGAGAAGUGAACCAGAGAAACACACGUUGUGGUAUAUUACCUGGUA, the self-cleavage turned out to be 0.635.

For GUCCCCUUUCAGGUGCGCGUGAAAGAGAGAAGUGAACCAGAGAAACACACGUUGUGGUAUAUUACCUGGUA, the self-cleavage was found to be 0.244.

Turning to GGCCUCUUUCACGUGCGCGUGAAAGAGAGAAGUGGACCAGAGAAACACACGUUGUGGUAUAUUACCUGGUA, the self-cleavage was determined as 0.213.

As to GUCCUCUUUCACGUGCGCGUGGAAGAGAGAAGUGAACCAGAGAAACAGACGUUGUGGUAUAUUACCUGGUA, the self-cleavage was found to be 0.136.

As for GUCCUCUUUCACGUGCGCGUGAAAGAGAGAAGUGACCCAGAGAAACAGACGUUGUGGUAUAUUACCUGGUA, the self-cleavage amounted to 0.118.

For the variant GUCCUCUUUCACGUGCGCGUGAAAGAGAGAAGUGAACCAGAGAAACACACGGUGUGGUAUAUUACCUCGUA, the self-cleavage was 0.283.

For the variant GUCCUCUUUCACGUGCGCGUGAAAGAGAGAAGUCAACCAGAGAAACACACGUUGUGGUAUAUUCCCUGGUA, the self-cleavage was determined as 0.578.

As to GUCCUCUUUCACGUGCGCGUGAAAGAGGGAAGUGAACCAGUGAAACACACGUUGUGGUAUAUUACCUGGUA, the self-cleavage amounted to 1.05.

For the variant GUCCUCUUUAACGUGCGCGUGAAAGAGAGAAGUGAACCAGAGAAACACUCGUUGUGGUAUAUUACCUGGUA, the self-cleavage worked out at 0.172.

GUCCUCUUUCACGUGCGCGUGAAAGAGAGAAGGGAACCAGAGAGACACACGUUGUGGUAUAUUACCUGGUA: the self-cleavage was 0.0996.

As for GUCCUCUUUCACGUGCGCGUGAAUGAGGGAAGUGAACCAGAGAAACACACGUUGUGGUAUAUUACCUGGUA, the self-cleavage was determined as 0.731.

Consider GUCCUCUUCCACGUGCGCGUGAAAGAGAGAAGUGAACCAGAGAAACACACGUUGUUGUAUAUUACCUGGUA, for which the self-cleavage is 0.0494.

Consider GUCCUCUUUCACGUGCGCGUGAAAGAGAGAAUUGAACCAGAGAAACACACUUUGUGGUAUAUUACCUGGUA, for which the self-cleavage is 0.119.

GUCUUCUUUCACGUGCUCGUGAAAGAGAGAAGUGAACCAGAGAAACACACGUUGUGGUAUAUUACCUGGUA: the self-cleavage came to 0.313.

Consider GUCCUCUUUCAAGUGAGCGUGAAAGAGAGAAGUGAACCAGAGAAACACACGUUGUGGUAUAUUACCUGGUA, for which the self-cleavage amounted to 0.964.

As to GUCCACUUUCACGUGCGCGUGAAAGAGAUAAGUGAACCAGAGAAACACACGUUGUGGUAUAUUACCUGGUA, the self-cleavage worked out at 0.0792.

For GUCCUCUAUCACGUGCGCGUGAUAGAGAGAAGUGAACCAGAGAAACACACGUUGUGGUAUAUUACCUGGUA, the self-cleavage came to 0.911.

Regarding GUCCUCUUUCACGUGCGCGUGAAAGAGAGAAGUGAGCCAGAGAAACACACGUUGUGGUAUAUUACCUGCUA, the self-cleavage amounted to 0.449.

With GUCCUCUUUGACGUGCGCGUGAAAGAGAGAAGUGAACCAGAGAAUCACACGUUGUGGUAUAUUACCUGGUA, the self-cleavage came out at 0.136.

In the case of GUCCUCUUUCACGUGCGCGUGAAAAUGAGAAGUGAACCAGAGAAACACACGUUGUGGUAUAUUACCUGGUA, the self-cleavage worked out at 0.175.

With GGCCUCUUUCACGUGCGCGUGAAAGAGAGAAGUGAACCAGAGCAACACACGUUGUGGUAUAUUACCUGGUA, the self-cleavage amounted to 0.115.

As for GUCCUCUUUCACGUGCGCGUGUAAGAGAGAAGUGAACCAGAGAAACACACGUUGUGGUAGAUUACCUGGUA, the self-cleavage was 0.611.

With GUCCUCUUUCACGUGCACGUGAAAGAGAGAAGUGAACCAUAGAAACACACGUUGUGGUAUAUUACCUGGUA, the self-cleavage worked out at 0.203.

Take GUCCUCUUUCACGUGCGCGUGAAAGAGACAAGUGAACUAGAGAAACACACGUUGUGGUAUAUUACCUGGUA: the self-cleavage came out at 0.145.

Take GUCCUCUUUCACGUGCGCGUGAAAGAGAGAAGUGAACAAGAGUAACACACGUUGUGGUAUAUUACCUGGUA: the self-cleavage is 0.152.

For GUCCUCUUUCACGUGCGCGUGAAAGAGAGAAAUGAACCAGAGAAACACACGUUGUGGUAUAUUACCUGGAA, the self-cleavage was determined as 0.139.

Take GUCCUCUUUCACGUGCGCGUGAUAGAGAGAAGUGAACCAGAGAAACACUCGUUGUGGUAUAUUACCUGGUA: the self-cleavage came out at 0.193.

Consider GUCCUCUUUCACGUGCGCGUGAAAGAGAGAAGUCAACCAGAGAAACACACGUUGUGGCAUAUUACCUGGUA, for which the self-cleavage was found to be 1.4.

Consider GUCCUCUUUCACGCGCGCGUGAAAGAGAGAAGUGAACCAGCGAAACACACGUUGUGGUAUAUUACCUGGUA, for which the self-cleavage was 1.18.

On to GUCCUCUUUCACGUGCGCGUGAAGGAGUGAAGUGAACCAGAGAAACACACGUUGUGGUAUAUUACCUGGUA, for which the self-cleavage came out at 0.475.

With GUCGUCUUUCACGUGCGCAUGAAAGAGAGAAGUGAACCAGAGAAACACACGUUGUGGUAUAUUACCUGGUA, the self-cleavage amounted to 0.143.

As for GUCCUCUUUCACGUGCGCCUGAAAGAGAGAAGUGAACCAGAGAACCACACGUUGUGGUAUAUUACCUGGUA, the self-cleavage was determined as 0.114.

With GUCCUCUUUCACGUGCGCGUGAAAGAGAGAAGUGAACCAGAGAAGCACACGUUGUGGUAUAUUUCCUGGUA, the self-cleavage is 0.176.

Turning to GUCCUUUUUCACGUGCGCGUGAAAGAGAGAAGUGAACCAGAGAAACACACGUUGUGGUAUAUUACCUGGUC, the self-cleavage came out at 1.05.

For GUCCUCUUUCAUGUGCUCGUGAAAGAGAGAAGUGAACCAGAGAAACACACGUUGUGGUAUAUUACCUGGUA, the self-cleavage turned out to be 0.69.

In the case of GUCCUCUUUCCCGUGCGCGUGAAAGAGAGAAGUGAACCAGAGAAACACACGUUGUAGUAUAUUACCUGGUA, the self-cleavage came to 0.15.

For the variant GUCCUCUGUCACGUGCGCGUGAAAGAGAGAAGUGAACCAGAGAAAAACACGUUGUGGUAUAUUACCUGGUA, the self-cleavage was found to be 0.134.

As for GUCCUCUUUCACGUGCGCGUGAAAGAGAUAAGUGAACCAGAGAAACACACUUUGUGGUAUAUUACCUGGUA, the self-cleavage worked out at 0.121.

For GUCCUCUUUCACGUGCGCGUGAAAGAGAGAAGUGAACCAGAGAAACAAACGUUGUGGUAGAUUACCUGGUA, the self-cleavage came to 0.149.

GUCCUCUUACACGUACGCGUGAAAGAGAGAAGUGAACCAGAGAAACACACGUUGUGGUAUAUUACCUGGUA: the self-cleavage is 0.704.

Take GUCCUGUUUCACGUGCGCGUGAAAGAGAGAAGUGAAUCAGAGAAACACACGUUGUGGUAUAUUACCUGGUA: the self-cleavage worked out at 0.257.

As for GUCCUCUUUCACGUGCGCGUCAAGGAGAGAAGUGAACCAGAGAAACACACGUUGUGGUAUAUUACCUGGUA, the self-cleavage stood at 0.555.

As for GUCCUCUUUCACGUGCGCCUGAAAGAGAGAAGUGAACCAGAGAAACACACGUUGCGGUAUAUUACCUGGUA, the self-cleavage turned out to be 0.271.

Take GUCCUCUUUCACGUGCGCGUGAAAGAGAGAAGUGAACUAGAGAAACACACGUUGUGGUAUAUUACUUGGUA: the self-cleavage was determined as 0.192.

Turning to GUCCUCUUUCGCGUGCGCGUGAAAGAGAGAAGUGAACCGGAGAAACACACGUUGUGGUAUAUUACCUGGUA, the self-cleavage turned out to be 0.323.

As for GUCCUCUUACACGUGCGCGUGAAAGAGAGAAGUGAACCAGAGAAACACACGUUGUGGUAUUUUACCUGGUA, the self-cleavage was 0.185.

In the case of GUCCUCUUUCACGUGCGCGUGAAAGAUAGAAGUCAACCAGAGAAACACACGUUGUGGUAUAUUACCUGGUA, the self-cleavage was determined as 1.16.

GUCCUCUUACACGUGCGCGUGAAAGAGAGAAGUGAACAAGAGAAACACACGUUGUGGUAUAUUACCUGGUA: the self-cleavage is 0.146.

In the case of GUCCUCCUUCACGUGCGCGUGAAAGAGAGAAGUGAACCAGAGAAACACACGUUGUGGUACAUUACCUGGUA, the self-cleavage came to 0.905.

GACCUCUUUCACGUGCGCGUGGAAGAGAGAAGUGAACCAGAGAAACACACGUUGUGGUAUAUUACCUGGUA: the self-cleavage is 0.175.

On to GUGCUCUUUCACGUUCGCGUGAAAGAGAGAAGUGAACCAGAGAAACACACGUUGUGGUAUAUUACCUGGUA, for which the self-cleavage was determined as 0.29.
